The target in one assay is T1, GFP-tagged SXM1 (Saccharomyces cerevisiae, UniProt Q04175 1-944).
T1 construct: Yeast GFP Fusion Collection strain; also called Yeast GFP fusion collection GFP(+)04, H9; not shown: GFP tag
T1 sequence (looked up): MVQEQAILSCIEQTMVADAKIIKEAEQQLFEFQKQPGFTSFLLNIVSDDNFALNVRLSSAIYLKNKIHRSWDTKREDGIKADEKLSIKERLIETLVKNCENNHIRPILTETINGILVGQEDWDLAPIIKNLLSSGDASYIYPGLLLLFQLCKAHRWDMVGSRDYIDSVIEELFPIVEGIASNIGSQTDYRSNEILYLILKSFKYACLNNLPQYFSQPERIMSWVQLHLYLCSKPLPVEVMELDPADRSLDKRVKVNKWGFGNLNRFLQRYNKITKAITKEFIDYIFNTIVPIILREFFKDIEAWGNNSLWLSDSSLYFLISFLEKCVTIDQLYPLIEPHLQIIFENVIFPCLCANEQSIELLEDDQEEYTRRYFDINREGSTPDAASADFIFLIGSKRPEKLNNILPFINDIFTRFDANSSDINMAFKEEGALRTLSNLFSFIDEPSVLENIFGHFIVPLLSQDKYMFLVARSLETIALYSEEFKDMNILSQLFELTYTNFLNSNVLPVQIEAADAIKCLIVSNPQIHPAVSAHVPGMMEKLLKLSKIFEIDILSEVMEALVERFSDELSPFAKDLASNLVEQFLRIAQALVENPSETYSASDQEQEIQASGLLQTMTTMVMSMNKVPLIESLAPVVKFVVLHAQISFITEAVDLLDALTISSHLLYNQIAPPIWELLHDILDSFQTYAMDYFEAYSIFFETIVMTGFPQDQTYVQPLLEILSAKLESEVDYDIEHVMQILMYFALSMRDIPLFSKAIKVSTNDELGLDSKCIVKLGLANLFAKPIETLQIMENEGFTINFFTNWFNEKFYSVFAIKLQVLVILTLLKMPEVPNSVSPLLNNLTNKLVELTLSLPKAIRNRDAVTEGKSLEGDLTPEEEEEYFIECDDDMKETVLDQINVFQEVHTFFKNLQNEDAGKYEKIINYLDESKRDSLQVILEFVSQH
The assay can be described thus: co-immunoprecipitation, Nb coupled to NHS-agarose beads, lysate of the yeast strain expressing the GFP-tagged target, Western blot anti-GFP. The method, then:
One SXM1-specific Nanobody (30=Nb clone CA17530 corresponding to SEQ ID NO: 18) was characterized by co-immunoprecipitation assays. The SXM1-specific Nanobody was covalently linked to NHS-agarose beads. The beads that were functionalized with this SXM1-specific Nanobody were incubated for an hour at 4° C. on a rotating device with either an EBY100 lysate or the lysate of the engineered Yeast strain expressing SXM1 GFP(+)04, H9) as a GFP-tagged protein. After washing, these beads were resuspended in SDS-PAGE loading dye and analyzed on SDS-PAGE (FIG. 9A). Separated proteins were transferred to a PVDF membrane and the Western blot (FIG. 9B) was developed with GFP-specific antibody to confirm the presence of GFP-tagged SXM1.

Assay [1] concerns the target T2, SXM1 (native, from EBY100 lysate) (Saccharomyces cerevisiae, UniProt Q04175 1-944).
T2 construct: mature; Endogenous untagged protein; also called YDR395W
T2 sequence (looked up): T1 sequence (looked up)
The assay can be described thus: co-IP, Nb on NHS-agarose beads, EBY100 yeast lysate, SDS-PAGE.

For a further assay, the target named is T3, GFP protein (Aequorea victoria (Water jellyfish) …, UniProt P42212 1-238 = GFP, biotinylated with the EZ-Link sulfo-NHS-LC-biotinylation kit for the BLI assay; unmodified in the NANEX selections).
T3 construct: Purified GFP; also called wild type GFP; biotinylated GFP
The assay can be described thus: method not stated.

For assay [2], the target named is T4, Rat Vesicular GLUtamate Transporter 1 (full-length, HEK293T lysate of Example 7) (rat, UniProt Q62634 1-560).
T4 construct: mature; Produced in HEK293T cells as published (Schenck et al., 2017), solubilised in DDM; also called rVGLUT1; rat VGLUT1
T4 sequence (looked up): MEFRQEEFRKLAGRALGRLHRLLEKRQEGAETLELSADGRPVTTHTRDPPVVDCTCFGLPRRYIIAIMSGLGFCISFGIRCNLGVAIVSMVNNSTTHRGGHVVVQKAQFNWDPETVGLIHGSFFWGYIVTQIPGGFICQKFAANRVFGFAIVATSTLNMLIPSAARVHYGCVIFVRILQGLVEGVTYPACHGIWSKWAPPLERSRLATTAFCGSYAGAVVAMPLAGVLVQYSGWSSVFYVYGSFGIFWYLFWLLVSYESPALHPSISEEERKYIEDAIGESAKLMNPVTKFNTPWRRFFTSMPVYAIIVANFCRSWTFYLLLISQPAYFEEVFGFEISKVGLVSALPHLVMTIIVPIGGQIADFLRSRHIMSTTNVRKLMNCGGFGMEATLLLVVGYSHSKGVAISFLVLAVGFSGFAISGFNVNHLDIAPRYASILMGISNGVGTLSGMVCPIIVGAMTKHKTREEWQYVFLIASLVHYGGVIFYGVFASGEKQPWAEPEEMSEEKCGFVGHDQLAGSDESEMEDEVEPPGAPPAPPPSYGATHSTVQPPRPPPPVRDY
In words: NANEX: capture from DDM lysate of HEK293T cells, elution with the same Nb.

In assay [3] the target is T5, SIS1 (native, from EBY100 lysate) (Saccharomyces cerevisiae, UniProt P25294 1-352).
T5 construct: mature; Endogenous untagged protein; also called YNL007C
T5 sequence (looked up): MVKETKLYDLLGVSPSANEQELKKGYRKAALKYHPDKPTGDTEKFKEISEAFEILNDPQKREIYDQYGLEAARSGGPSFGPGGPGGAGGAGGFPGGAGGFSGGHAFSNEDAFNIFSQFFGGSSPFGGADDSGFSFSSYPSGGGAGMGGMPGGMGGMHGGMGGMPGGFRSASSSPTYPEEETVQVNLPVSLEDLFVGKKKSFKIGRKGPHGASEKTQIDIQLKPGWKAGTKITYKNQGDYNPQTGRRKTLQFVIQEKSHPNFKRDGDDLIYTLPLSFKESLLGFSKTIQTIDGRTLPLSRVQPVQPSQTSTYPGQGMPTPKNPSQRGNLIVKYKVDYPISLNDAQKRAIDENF
In words: co-IP, Nb on NHS-agarose beads, EBY100 yeast lysate, SDS-PAGE.

For the next assay, the target named is T6, GFP-tagged SIS1 (Saccharomyces cerevisiae, UniProt P25294 1-352).
T6 construct: Yeast GFP Fusion Collection strain; also called Yeast GFP fusion collection GFP(+)22, E5; not shown: GFP tag
T6 sequence (looked up): T5 sequence (looked up)
The assay can be described thus: co-immunoprecipitation, Nb coupled to NHS-agarose beads, lysate of the yeast strain expressing the GFP-tagged target, Western blot anti-GFP. The method, then:
One SIS1-specific Nanobody (44=Nb clone CA17444 corresponding to SEQ ID NO: 9), three ALD6-specific Nanobodies (53=CA17453-SEQ ID NO: 10, 54=CA17454-SEQ ID NO: 11, 60=CA17460-SEQ ID NO: 12), two BMH1-specific Nanobodies (58=CA17458-SEQ ID NO: 13, 59=CA17459-SEQ ID NO: 14) were characterized by co-immunoprecipitation assays. Each target-specific Nanobodies was covalently linked to NHS-agarose beads. The beads that were functionalized with these target-specific Nanobodies were incubated for an hour at 4° C. on a rotating device with either an EBY100 lysate or the lysate of the engineered Yeast strain expressing the target (Yeast GFP fusion collection reference for SIS1: GFP(+)22, E5, for ALD6: GFP(+)15, F1, for BMH1: GFP(+)27, D5) as a GFP-tagged protein. After washing, these beads were resuspended in SDS-PAGE loading dye and analyzed on SDS-PAGE (FIG. 8A). Separated proteins were transferred to a PVDF membrane and the Western blot (FIG. 8B) was developed with GFP-specific antibody to confirm the presence of GFP-tagged targets.

The target in assay [4] is T7, BMH1 (native, from EBY100 lysate) (Saccharomyces cerevisiae, UniProt P29311 2-267).
T7 construct: mature; Endogenous untagged protein; also called YER177W
T7 sequence (looked up): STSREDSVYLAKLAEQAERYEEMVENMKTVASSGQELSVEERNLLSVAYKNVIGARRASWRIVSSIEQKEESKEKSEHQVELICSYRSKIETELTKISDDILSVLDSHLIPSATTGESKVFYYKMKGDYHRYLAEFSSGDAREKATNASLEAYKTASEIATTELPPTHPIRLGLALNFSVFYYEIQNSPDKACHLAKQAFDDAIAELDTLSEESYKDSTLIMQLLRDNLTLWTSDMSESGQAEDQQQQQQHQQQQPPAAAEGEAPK
The assay can be described thus: co-IP, Nb on NHS-agarose beads, EBY100 yeast lysate, SDS-PAGE.

Another assay deals with T8, GFP-tagged BMH1 (Saccharomyces cerevisiae, UniProt P29311 2-267).
T8 construct: Yeast GFP Fusion Collection strain; also called Yeast GFP fusion collection GFP(+)27, D5; not shown: GFP tag
T8 sequence (looked up): T7 sequence (looked up)
In words: co-IP, Nb on NHS-agarose beads, lysate of GFP-fusion yeast strain, SDS-PAGE and anti-GFP Western blot. The source says:
After washing, these beads were resuspended in SDS-PAGE loading dye and analyzed on SDS-PAGE (FIG. 8A). Separated proteins were transferred to a PVDF membrane and the Western blot (FIG. 8B) was developed with GFP-specific antibody to confirm the presence of GFP-tagged targets.
For each target selection of binders in this example, as detailed in Table 2, after 3 rounds of selection by panning using NANEX technology, individual clones were isolated from the enriched sub-library by plating tenfold serial dilutions of the overnight-grown phage-infected E. coli TG1 cells in LB. 96 individual clones were picked and grown in a 96-well plate containing LB supplemented with 100 μg/ml ampicillin. Plasmids containing the Nanobody encoding genes were purified, sequenced and grouped into sequence families (Material and methods). A representative member of each sequence family was selected. Their encoding plasmid was transformed into the E. coli WK6 expression strain to express and purify each Nanobody of interest. […] After washing, these beads were resuspended in SDS-PAGE loading dye and analyzed on SDS-PAGE (as in the Figure specified in Table 2 for each target). […] For each target-specific Nanobody analysed in this way, the co-immunoprecipitation with the EBY100 lysate gives a predominant band corresponding to the expected molecular weight of the target protein. […]

B1: CA17530 (VHH)
VHH: QVQLVESGGGLVQTGGSLRLSCVVSKTLFSINAMAWYRQSPGKPRELVAGWTSGGRTSYGDSVKGRFTISRDNAENTLYLQMNDVKPEDTAVYHCAADYLVVAGKPGYDYAYWGQGTQVTVSS
notes: C-terminal 6xHis-EPEA tag is part of the entry
For B1, the binding result (in the assay with GFP-tagged SXM1; in assay [1]) was “binds” in each case.

B2: CA15816 (VHH)
VHH: QVQLVESGGGLVQAGGSLRLSCAASGRTFSTAAMGWFRQAPGKERDFVAGIYWAAGSTYYADSAKGRFTISRDNAKNTVYLQMDSLKPEDTAVYYCAARRRGFTLAPTRANEYDYWGQGTQVTVSS
notes: C-terminal 6xHis-EPEA tag is part of the entry, which already carries T54A/V55A; also called GFP trapper; GFP-specific trapper
For B2, in the assay with GFP protein, the Kd came out at 2.7 nM.

B3: CA17875 (VHH)
VHH: QVQLQESGGGLVQAGGSLRLSCAASGRSVRTWSMGWFRQPPGKERELVAGISWSGSGTYHADSVKGRFTISRDNAKNMVYLQMNSLKPEDTAVYYCAAGQTGWNPGSDFHRWGKGTQVTVSS
notes: C-terminal 6xHis-EPEA tag is part of the entry; also called rVGLUT1-specific trapper/stripper
Turning to B3, the binding result in assay [2] is recorded as “binds”.

B4: CA17444 (VHH)
VHH: QVQLVESGGGLVQPGGSLRLSCAASGFTLDYYAIGWFRQAPGKEREGVSCISSSDGSTVYADSVKGRFTISRDNAKNTVYLQMSNLKPEDTAVYYCATDQITSTGCPDFDSWGQGTQVTVSS
notes: as for B1
Turning to B4, the binding result (in assay [3]; with GFP-tagged SIS1) was “binds” in each case.

B5: CA17459 (VHH)
VHH: QVQLVESGGGEVQTGGSLRLSCTASGSRLNFGSWNWYRKRGENYRELVAAMGPSTGHTHYGDSMKGRVTISLNAAKDTLFLQMNSLKPEDTAVYYCAADLDGLGFPRGSFYGMDYWGKGTQVTVSS
notes: as for B1
Turning to B5, the binding result (in assay [4]; with GFP-tagged BMH1) was “binds” throughout.

(Values after patent US20240287501A1 (VIB VZW, published 2024).)
